For experiment [1], the target named is HBV病毒 (HepAD38细胞上清制备的HBV病毒液). Briefly: cell-based or functional assay.
The target of experiment [2] is T1, HBs抗原 (GENBANK ACCESSION NO: P30019.1) (乙肝病毒 (hepatitis B virus), UniProt P30019 1-226).
T1 construct: Coating antigen of the ELISA (50 ng per well); also called 乙肝病毒小膜蛋白HBs; 乙肝表面抗原
Briefly: ELISA, HBs antigen coated at 50 ng per well, anti-human IgG-HRP, OD450.

T1 sequence (P30019 whole entry, one chain of several): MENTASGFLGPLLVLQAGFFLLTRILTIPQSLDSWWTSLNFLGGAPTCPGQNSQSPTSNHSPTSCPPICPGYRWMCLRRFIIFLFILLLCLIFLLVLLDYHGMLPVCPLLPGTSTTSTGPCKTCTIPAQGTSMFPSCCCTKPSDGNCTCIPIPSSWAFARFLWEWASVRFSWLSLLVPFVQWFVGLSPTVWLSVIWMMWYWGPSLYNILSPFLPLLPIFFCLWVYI

B1: 单克隆抗体B432 (antibody, V domains shown)
VH: VQLVQSGGGVVQPGGSLRLSCAASGFIFGDYAMYWVRQAPGKGLEWVSFIGADGATIYYADSVTGRFTISRDNSKNSLFLQMNSLRTEDTAFYYCAKEMGVRDRYYYYAIDVWGQGTTVTVSS
VL: EIVLTQSPGTLSLSPGERASLSCRASQSVGGYLAWYQQTPGQAPRLLIYHSSTRATGIPARFSGSGSGTDFTLTISRLEPEDFAVYYCQQRTKWPLTFGGGTKVEIKR
notes: also called B432抗体
Consider B1, for which the “HBV neutralisation on HepG2-NTCP cells, HBeAg in supernatant (IC50)” value in experiment [1] is 0.025 µg/mL. For the same molecule, the binding result in experiment [2] is listed as “binds”.

Source of the values: CN111234012A (UNIV TSINGHUA, dated 2020).
